In article PMC3296735:
Each block holds one binder with its values, some of them ahead of it.

Experiments:
[1] = total lysate western blot; details: glycan lost
[2] = cell surface ELISA, HA tag, CHO; details: glycan lost
[3] = cell surface biotinylation, western blot; details: glycan lost
[4] = calnexin co-immunolabelling intensity correlation (ER retention); details: glycan lost
[5] = cycloheximide chase western; protein remaining; details: glycan lost
[6] = biological target: human GLP1R with C-terminal V5 epitope (GLP1R-V5) (human) (UniProt P43220)

B1: GLP-1R (GLP1R): N63,82,115Q (protein)
parent chain: MAGAPGPLRLALLLLGMVGRAGPRPQGATVSLWETVQKWREYRRQCQRSLTEDPPPATDLFCNRTFDEYACWPDGEPGSFVNVSCPWYLPWASSVPQGHVYRFCTAEGLWLQKDNSSLPWRDLSECEESKRGERSSPEEQLLFLYIIYTVGYALSFSALVIASAILLGFRHLHCTRNYIHLNLFASFILRALSVFIKDAALKWMYSTAAQQHQWDGLLSYQDSLSCRLVFLLMQYCVAANYYWLLVEGVYLYTLLAFSVLSEQWIFRLYVSIGWGVPLLFVVPWGIVKYLYEDEGCWTRNSNMNYWLIIRLPILFAIGVNFLIFVRVICIVVSKLKANLMCKTDIKCRLAKSTLTLIPLLGTHEVIFAFVMDEHARGTLRFIKLFTELSFTSFQGLMVAILYCFVNNEVQLEFRKSWERWRLEHLHIQRDSSMKPLKCPTSSLSSGATAGSSMYTATCQASCS
- expression_or_secretion ([1]; control: wild type GLP-1R-V5): decreases
- localisation_or_trafficking ([2]; control: wild type HA-GLP-1R): decreases
- localisation_or_trafficking ([3]; control: wild type GLP-1R-V5): decreases

B2: GLP-1R (GLP1R): complete glycosylation-deficient mutant (N63,82,115Q) (protein)
parent chain: B1 parent chain
- localisation_or_trafficking, other: Pearson correlation ([4]; control: wild type GLP-1R): increases, just under 50% vs low level of correlation

B3: GLP-1R (GLP1R): N63Q (protein)
parent chain: B1 parent chain
- localisation_or_trafficking ([2]; control: wild type HA-GLP-1R): no change

B4: GLP-1R (GLP1R): glycosylation deficient GLP-1R (N63,82,115Q) (protein)
parent chain: B1 parent chain
- degradation_or_half_life ([5]; control: wild type GLP-1R-V5): decreases

B5: GLP-1R (GLP1R): N115Q (protein)
parent chain: B1 parent chain
- localisation_or_trafficking ([2]; control: wild type HA-GLP-1R): no change

B6: GLP-1R (GLP1R): N82Q (protein)
parent chain: B1 parent chain
- localisation_or_trafficking ([2]; control: wild type HA-GLP-1R): no change

B7: GIPR (GIP receptor): N62,77Q (protein)
parent chain: MTTSPILQLLLRLSLCGLLLQRAETGSKGQTAGELYQRWERYRRECQETLAAAEPPSGLACNGSFDMYVCWDYAAPNATARASCPWYLPWHHHVAAGFVLRQCGSDGQWGLWRDHTQCENPEKNEAFLDQRLILERLQVMYTVGYSLSLATLLLALLILSLFRRLHCTRNYIHINLFTSFMLRAAAILSRDRLLPRPGPYLGDQALALWNQALAACRTAQIVTQYCVGANYTWLLVEGVYLHSLLVLVGGSEEGHFRYYLLLGWGAPALFVIPWVIVRYLYENTQCWERNEVKAIWWIIRTPILMTILINFLIFIRILGILLSKLRTRQMRCRDYRLRLARSTLTLVPLLGVHEVVFAPVTEEQARGALRFAKLGFEIFLSSFQGFLVSVLYCFINKEVQSEIRRGWHHCRLRRSLGEEQRQLPERAFRALPSGSGPGEVPTSRGLSSGTLPGPGNEASRELESYC
- expression_or_secretion ([1]; control: wild type GIPR-V5): decreases
- localisation_or_trafficking ([2]; control: wild type HA-GIPR): abolishes
- localisation_or_trafficking ([3]; control: wild type GIPR-V5): abolishes

B8: GIPR (GIP receptor): complete glycosylation-deficient mutant (N62,77Q) (protein)
parent chain: B7 parent chain
- localisation_or_trafficking, other: Pearson correlation ([4]; control: wild type GIPR): increases, about 80% vs almost no correlation

B9: GIPR (GIP receptor): N77Q (protein)
parent chain: B7 parent chain
- localisation_or_trafficking ([2]; control: wild type HA-GIPR): decreases
- localisation_or_trafficking ([3]; control: wild type GIPR-V5): decreases

B10: GIPR (GIP receptor): N62Q (protein)
parent chain: B7 parent chain
- localisation_or_trafficking ([2]; control: wild type HA-GIPR): decreases
- localisation_or_trafficking ([3]; control: wild type GIPR-V5): decreases

B11: GIPR (GIP receptor): glycosylation deficient GIPR (N62,77Q) (protein)
parent chain: B7 parent chain
- degradation_or_half_life ([5]; control: wild type GIPR-V5): decreases

- rescue of the cAMP response to GIP (LANCE TR-FRET) in CHO cells co-expressing N62,77Q-GIPR-V5 and wild type GLP1R-V5; EC50 of GIP (neither receptor alone gave a response that could be fitted) [6]: 11 nM
B12: N62,77Q-GIPR-V5 (receptor)
chain: RAETGSKGQTAGELYQRWERYRRECQETLAAAEPPSGLACQGSFDMYVCWDYAAPQATARASCPWYLPWHHHVAAGFVLRQCGSDGQWGLWRDHTQCENPEKNEAFLDQRLILERLQVMYTVGYSLSLATLLLALLILSLFRRLHCTRNYIHINLFTSFMLRAAAILSRDRLLPRPGPYLGDQALALWNQALAACRTAQIVTQYCVGANYTWLLVEGVYLHSLLVLVGGSEEGHFRYYLLLGWGAPALFVIPWVIVRYLYENTQCWERNEVKAIWWIIRTPILMTILINFLIFIRILGILLSKLRTRQMRCRDYRLRLARSTLTLVPLLGVHEVVFAPVTEEQARGALRFAKLGFEIFLSSFQGFLVSVLYCFINKEVQSEIRRGWHHCRLRRSLGEEQRQLPERAFRALPSGSGPGEVPTSRGLSSGTLPGPGNEASRELESYC
